The text below walks through data of US20190225698A1 (JIANGSU HENGRUI MEDICINE, published 2019).

The target in assay [1] is T1, murine CD137 expressed on transfected HEK293 cells (murine, UniProt P20334 24-256).
T1 construct: whole, on cells
T1 sequence (looked up): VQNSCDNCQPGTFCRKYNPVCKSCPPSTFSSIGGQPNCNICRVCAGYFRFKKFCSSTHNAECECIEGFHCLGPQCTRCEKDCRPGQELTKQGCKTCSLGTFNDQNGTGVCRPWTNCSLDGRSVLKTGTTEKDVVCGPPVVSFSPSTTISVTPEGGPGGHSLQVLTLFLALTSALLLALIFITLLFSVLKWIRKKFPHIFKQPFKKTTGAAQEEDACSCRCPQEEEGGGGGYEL
Kind of assay: flow cytometry on transfected HEK293 cells. For orientation: Flow cytometry measures light scatter and fluorescence of single cells or particles in a stream.

For assay [2], the target named is T2, murine CD27 expressed on the cell surface of transfected HEK293 cells (murine, UniProt P41272 24-250).
T2 construct: whole, on cells; also called mouse CD27 antigen expressed by HEK293 cells
T2 sequence (looked up): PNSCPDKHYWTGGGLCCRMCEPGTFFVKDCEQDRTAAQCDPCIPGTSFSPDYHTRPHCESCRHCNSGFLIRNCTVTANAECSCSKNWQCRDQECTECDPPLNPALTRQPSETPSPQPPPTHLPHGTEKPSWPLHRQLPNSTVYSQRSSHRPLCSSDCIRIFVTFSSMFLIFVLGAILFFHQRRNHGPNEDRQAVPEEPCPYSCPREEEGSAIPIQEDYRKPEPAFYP
Kind of assay: flow cytometry on transfected HEK293 cells.

The target in assay [3] is T3, human OX40 expressed on transfected HEK293 cells (human, UniProt P43489 29-277).
T3 construct: whole, on cells
T3 sequence (looked up): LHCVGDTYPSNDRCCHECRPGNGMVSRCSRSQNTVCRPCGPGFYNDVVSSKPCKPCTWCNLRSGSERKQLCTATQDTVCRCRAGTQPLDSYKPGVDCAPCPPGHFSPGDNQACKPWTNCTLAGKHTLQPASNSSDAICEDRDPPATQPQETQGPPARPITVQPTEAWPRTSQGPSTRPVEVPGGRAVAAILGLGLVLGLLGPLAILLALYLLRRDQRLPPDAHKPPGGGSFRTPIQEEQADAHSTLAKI
Kind of assay: flow cytometry on transfected HEK293 cells.

Assay [4] concerns the target T4, human CD27 expressed on the cell surface of transfected HEK293 cells (human, UniProt P26842 20-260).
T4 construct: whole, on cells; also called human CD27 antigen expressed by HEK293 cells
T4 sequence (looked up): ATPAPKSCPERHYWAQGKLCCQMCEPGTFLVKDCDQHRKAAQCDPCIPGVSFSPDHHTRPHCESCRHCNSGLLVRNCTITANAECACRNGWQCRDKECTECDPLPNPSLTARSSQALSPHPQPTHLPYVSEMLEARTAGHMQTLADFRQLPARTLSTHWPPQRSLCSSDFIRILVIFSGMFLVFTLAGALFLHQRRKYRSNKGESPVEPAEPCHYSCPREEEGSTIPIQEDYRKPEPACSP
Kind of assay: flow cytometry on transfected HEK293 cells.

The target in assay [5] is T5, human CD40 expressed on transfected HEK293 cells (human, UniProt P25942 21-277).
T5 construct: whole, on cells
T5 sequence (P25942 21-277): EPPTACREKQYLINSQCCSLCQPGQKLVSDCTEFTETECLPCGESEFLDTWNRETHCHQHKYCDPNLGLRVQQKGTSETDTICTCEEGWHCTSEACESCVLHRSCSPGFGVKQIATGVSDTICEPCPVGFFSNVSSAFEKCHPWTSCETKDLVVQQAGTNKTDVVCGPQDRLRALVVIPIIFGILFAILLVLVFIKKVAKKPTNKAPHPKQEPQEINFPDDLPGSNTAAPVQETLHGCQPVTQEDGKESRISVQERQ
Kind of assay: flow cytometry on transfected HEK293 cells.

Assay [6] concerns the target T2, murine CD27 expressed on the cell …. Kind of assay: flow cytometry on transfected HEK293 cells, 100 nM antibody. The protocol:
(§1) The binding of antibody to human or murine CD27 expressed on cell surface is determined by fluorescence activated cell sorting (FACS). The corresponding antigen was transiently transfected into HEK293 cells using a vector plasmid and expressed. After 48 hours, cells were harvested and washed once with cold FACS buffer (PBS, 1% BSA), and then incubated with 100 nM corresponding antibody for 1 hour on ice. After washing twice with buffer, the cells were bound to Alexa Fluor 647-conjugated murine anti-human Fc antibody for 30 minutes on ice. After washing once, the cells were loaded onto a Beckman® CytoFlex flow cytometer for detection and the percentage of cells with binding signals was calculated.

Assay [7] deals with T4, human CD27 expressed on the cell …. The assay is described as above. On the procedure:
as §1

B1: anti-CD27 antibody mAb076 (IgG1 form) (antibody, V domains shown)
VH: EVQLVESGGGLVQPGGSLRLSCAASGFTFSDYGIHWVRQAPGKGLEWIGWINPNRGSTNYAQKFQGRVTISRDNSKNTLYLQLNSLRAEDTAVYYCARDYGYTWYFDVWGQGTLVTVSS
VL: DIQLTQSPSSLSASVGDRVTITCRASQDISSVLAWYQQKPGKAPKLLIYAASSLQSGVPSRFSGSGSGTDFTLTISSLQPEDFATYYCQQRDAWPLTFGQGTKVEIK
notes: Human antibody from phage display
Take B1: the binding result in assay [1] is listed as “no binding (tested: 100 nM)”; in assay [2], “binds”; in assay [3], “no binding (tested: 100 nM)”; in assay [4], “binds”; in assay [5], “no binding (tested: 100 nM)”.

B2: anti-CD27 antibody mAb077 (IgG1 form) (antibody, V domains shown)
VH: EVQLVESGGGLVQPGGSLRLSCAASGFTFSGYGIHWVRQAPGKGLEWIGWINPNRGSTKYAQKFQGRVTISRDNSKNTLYLQLNSLRAEDTAVYYCARDPGYTWYFDVWGQGTLVTVSS
VL: DIQLTQSPSSLSASVGDRVTITCRASQDISSDLAWYQQKPGKAPKLLIYAASTLQSGVPSRFSGSGSGTDFTLTISSLQPEDFATYYCQQRDAWPPTFGQGTKVEIK
notes: as for B1
With B2, the binding result in assay [6] is “binds”; in assay [7], “binds”; in assay [1] it was “no binding (tested: 100 nM)”; in assay [3], “no binding (tested: 100 nM)”; in assay [5], “no binding (tested: 100 nM)”.
